Assay [1] concerns the target T1, IGF-1R on A549 human lung adenocarcinoma cells or primary human ocular choroid fibroblasts (HOCF) (human, UniProt P08069 31-1367). Briefly: cell-based or functional assay.
Assay [2] deals with T1, IGF-1R on A549 human lung …. Briefly: cell based binding assay on A549 cells; YTE only heavy chain (SEQ ID NO: 94).
Assay [3] shares this target. Briefly: cell based binding assay on A549 cells; C22S plus YTE heavy chain (SEQ ID NO: 95).
The target is the same in assay [4]. Briefly: flow cytometry on A549 cells, binding dose response curve (MFI). As to the method: (§1) Unbound antibody was removed by washing, and the cells were incubated with an Alexa Fluor 488™—goat anti-human antibody (fluorescently labeled antibody) and a cell impermeable dye to gate live cells. The median fluorescence intensity (MFI) of viable cells was measured by flow cytometry and the data were analyzed using FlowJo™ software. Dose curves were fitted using a non-linear regression model; log (agonist) vs response-variable slope (four parameters).
For orientation: Flow cytometry measures light scatter and fluorescence of single cells or particles in a stream.

The target is the same in assay [5]. Briefly: flow cytometry on HOCF cells, binding dose response curve (MFI). As to the method:
as §1

Assay [6] has as its target IGF-1R (as used in the surface plasmon resonance assay of Example 7) (UniProt P08069 31-932, limits assumed). Description: SPR, pH 7.4. (In SPR one partner is held on a chip, and binding of the other changes the refractive index at the surface.)

IGF-1R (as used in the surface plasmon resonance assay of Example 7), sequence (P08069 31-932 limits assumed): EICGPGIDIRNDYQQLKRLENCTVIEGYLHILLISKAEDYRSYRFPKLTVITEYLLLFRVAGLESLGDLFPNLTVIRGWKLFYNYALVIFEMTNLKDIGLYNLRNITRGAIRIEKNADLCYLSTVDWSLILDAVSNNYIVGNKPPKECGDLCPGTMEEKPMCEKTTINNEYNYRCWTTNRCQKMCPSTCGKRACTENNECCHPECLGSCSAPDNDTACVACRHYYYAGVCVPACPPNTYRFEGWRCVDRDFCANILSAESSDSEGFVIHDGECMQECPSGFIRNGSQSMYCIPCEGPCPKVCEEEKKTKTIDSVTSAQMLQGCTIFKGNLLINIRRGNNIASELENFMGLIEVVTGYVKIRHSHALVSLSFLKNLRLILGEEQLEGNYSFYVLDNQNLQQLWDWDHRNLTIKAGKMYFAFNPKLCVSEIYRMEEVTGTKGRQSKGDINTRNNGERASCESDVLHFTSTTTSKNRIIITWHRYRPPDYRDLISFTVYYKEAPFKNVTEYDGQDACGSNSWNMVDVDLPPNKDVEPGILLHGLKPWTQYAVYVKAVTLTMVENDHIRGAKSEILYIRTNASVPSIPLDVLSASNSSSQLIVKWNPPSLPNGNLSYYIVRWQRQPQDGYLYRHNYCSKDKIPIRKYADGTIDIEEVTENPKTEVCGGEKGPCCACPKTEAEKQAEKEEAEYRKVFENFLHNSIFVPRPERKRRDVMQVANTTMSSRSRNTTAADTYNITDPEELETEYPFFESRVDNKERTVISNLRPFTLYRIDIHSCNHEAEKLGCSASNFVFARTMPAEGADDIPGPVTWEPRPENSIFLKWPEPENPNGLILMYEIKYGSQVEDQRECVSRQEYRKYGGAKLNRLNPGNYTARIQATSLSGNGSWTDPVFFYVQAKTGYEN
T1 sequence (P08069 31-1367): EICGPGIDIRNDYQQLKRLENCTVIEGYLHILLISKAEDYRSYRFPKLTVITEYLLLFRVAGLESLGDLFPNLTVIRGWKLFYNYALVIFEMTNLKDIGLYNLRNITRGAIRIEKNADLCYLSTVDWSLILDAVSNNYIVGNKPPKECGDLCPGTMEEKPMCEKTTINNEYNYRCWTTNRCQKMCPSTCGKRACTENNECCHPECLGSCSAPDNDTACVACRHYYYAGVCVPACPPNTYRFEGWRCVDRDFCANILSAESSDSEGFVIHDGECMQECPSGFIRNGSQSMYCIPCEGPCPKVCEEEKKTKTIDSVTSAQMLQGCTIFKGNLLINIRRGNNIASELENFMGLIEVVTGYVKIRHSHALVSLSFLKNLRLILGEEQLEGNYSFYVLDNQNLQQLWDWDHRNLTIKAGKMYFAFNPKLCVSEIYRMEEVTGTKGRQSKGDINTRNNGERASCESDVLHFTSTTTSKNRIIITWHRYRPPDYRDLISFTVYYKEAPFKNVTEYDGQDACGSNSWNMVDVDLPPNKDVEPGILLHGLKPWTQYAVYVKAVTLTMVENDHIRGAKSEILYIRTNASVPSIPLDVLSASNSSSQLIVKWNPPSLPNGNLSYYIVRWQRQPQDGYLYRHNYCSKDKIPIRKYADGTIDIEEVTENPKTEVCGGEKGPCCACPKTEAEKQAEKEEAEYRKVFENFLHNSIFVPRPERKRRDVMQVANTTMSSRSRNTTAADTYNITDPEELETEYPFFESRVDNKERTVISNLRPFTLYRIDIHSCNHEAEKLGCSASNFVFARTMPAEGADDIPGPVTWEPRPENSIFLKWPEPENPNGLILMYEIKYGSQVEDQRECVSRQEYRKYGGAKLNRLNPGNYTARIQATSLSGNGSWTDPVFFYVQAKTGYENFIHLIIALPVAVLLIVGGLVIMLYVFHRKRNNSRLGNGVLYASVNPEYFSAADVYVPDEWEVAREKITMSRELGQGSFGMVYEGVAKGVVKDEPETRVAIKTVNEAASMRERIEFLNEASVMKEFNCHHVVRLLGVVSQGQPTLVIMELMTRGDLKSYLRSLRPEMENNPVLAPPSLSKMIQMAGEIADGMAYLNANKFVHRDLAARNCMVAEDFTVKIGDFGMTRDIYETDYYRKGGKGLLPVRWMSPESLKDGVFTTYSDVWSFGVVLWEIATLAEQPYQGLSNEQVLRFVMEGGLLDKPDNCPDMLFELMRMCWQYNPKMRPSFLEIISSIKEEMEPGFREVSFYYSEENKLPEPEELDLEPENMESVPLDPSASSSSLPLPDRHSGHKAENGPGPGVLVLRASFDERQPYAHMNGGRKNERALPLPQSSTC

B1: VRDN-1100 with the Fc YTE mutations in the heavy chain (antibody, human IgG1, kappa)
heavy: QVQLVQSGAEVVKPGASVKLSCKASGYTFTSYWMHWVKQRPGQGLEWIGEINPSNGRTNYNQKFQGKATLTVDKSSSTAYMQLSSLTSEDSAVYYFARGRPDYYGSSKWYFDVWGQGTTVTVSSASTKGPSVFPLAPSSKSTSGGTAALGCLVKDYFPEPVTVSWNSGALTSGVHTFPAVLQSSGLYSLSSVVTVPSSSLGTQTYICNVNHKPSNTKVDKKVEPKSCDKTHTCPPCPAPELLGGPSVFLFPPKPKDTLYITREPEVTCVVVDVSHEDPEVKFNWYVDGVEVHNAKTKPREEQYNSTYRVVSVLTVLHQDWLNGKEYKCKVSNKALPAPIEKTISKAKGQPREPQVYTLPPSRDELTKNQVSLTCLVKGFYPSDIAVEWESNGQPENNYKTTPPVLDSDGSFFLYSKLTVDKSRWQQGNVFSCSVMHEALHNHYTQKSLSLSPG
light: DVVMTQTPLSLPVSLGDPASISCRSSQSIVHSNVNTYLEWYLQKPGQSPRLLIYKVSNRFSGVPDRFSGSGAGTDFTLRISRVEAEDLGIYYCFQGSHVPPTFGGGTKLEIKRTVAAPSVFIFPPSDEQLKSGTASVVCLLNNFYPREAKVQWKVDNALQSGNSQESVTEQDSKDSTYSLSSTLTLSKADYEKHKVYACEVTHQGLSSPVTKSFNRGEC
notes: also called YTE Fc mutatant version of VRDN1100; YTE only mutant
Turning to B1, the “IC50 of inhibition of IGF-1R autophosphorylation” value in assay [1] worked out at 0.4 nM. In assay [2], this molecule showed a half-maximal effective concentration (EC50) of 0.3 nM.

B2: VRDN-1100 with C22S mutation and Fc YTE mutations in the heavy chain (antibody, human IgG1, kappa)
heavy: QVQLVQSGAEVVKPGASVKLSSKASGYTFTSYWMHWVKQRPGQGLEWIGEINPSNGRTNYNQKFQGKATLTVDKSSSTAYMQLSSLTSEDSAVYYFARGRPDYYGSSKWYFDVWGQGTTVTVSSASTKGPSVFPLAPSSKSTSGGTAALGCLVKDYFPEPVTVSWNSGALTSGVHTFPAVLQSSGLYSLSSVVTVPSSSLGTQTYICNVNHKPSNTKVDKKVEPKSCDKTHTCPPCPAPELLGGPSVFLFPPKPKDTLYITREPEVTCVVVDVSHEDPEVKFNWYVDGVEVHNAKTKPREEQYNSTYRVVSVLTVLHQDWLNGKEYKCKVSNKALPAPIEKTISKAKGQPREPQVYTLPPSRDELTKNQVSLTCLVKGFYPSDIAVEWESNGQPENNYKTTPPVLDSDGSFFLYSKLTVDKSRWQQGNVFSCSVMHEALHNHYTQKSLSLSPG
light: DVVMTQTPLSLPVSLGDPASISCRSSQSIVHSNVNTYLEWYLQKPGQSPRLLIYKVSNRFSGVPDRFSGSGAGTDFTLRISRVEAEDLGIYYCFQGSHVPPTFGGGTKLEIKRTVAAPSVFIFPPSDEQLKSGTASVVCLLNNFYPREAKVQWKVDNALQSGNSQESVTEQDSKDSTYSLSSTLTLSKADYEKHKVYACEVTHQGLSSPVTKSFNRGEC
notes: also called C22S and Fc YTE mutant; C22S plus YTE mutations
On to B2, for which, in assay [1], the “IC50 of inhibition of IGF-1R autophosphorylation” value was 0.37 nM. The half-maximal effective concentration (EC50) in assay [3] came out at 0.36 nM.

B3: VRDN-1100 (antibody, V domains shown)
VH: QVQLVQSGAEVVKPGASVKLSCKASGYTFTSYWMHWVKQRPGQGLEWIGEINPSNGRTNYNQKFQGKATLTVDKSSSTAYMQLSSLTSEDSAVYYFARGRPDYYGSSKWYFDVWGQGTTVTVSS
VL: DVVMTQTPLSLPVSLGDPASISCRSSQSIVHSNVNTYLEWYLQKPGQSPRLLIYKVSNRFSGVPDRFSGSGAGTDFTLRISRVEAEDLGIYYCFQGSHVPPTFGGGTKLEIKR
notes: Humanized monoclonal antibody to IGF-1R; also called VRDN-01100
For B3, in assay [1], the “IC50 of inhibition of IGF-1 stimulated receptor phosphorylation on A549 cells (pIGF-1R ELISA)” value is 0.09 nM and the “IC50 of inhibition of IGF-1 stimulated receptor phosphorylation on HOCF cells (pIGF-1R ELISA)” value is 0.09 nM. In assay [4], this molecule displayed an EC50 of 0.1 nM. Moreover, the EC50 in assay [5] came out at 0.4 nM.

B4: mutant of VRDN-1100 with a C22S mutation in the heavy chain (antibody, V domains shown)
VH: QVQLVQSGAEVVKPGASVKLSSKASGYTFTSYWMHWVKQRPGQGLEWIGEINPSNGRTNYNQKFQGKATLTVDKSSSTAYMQLSSLTSEDSAVYYFARGRPDYYGSSKWYFDVWGQGTTVTVSS
VL: DVVMTQTPLSLPVSLGDPASISCRSSQSIVHSNVNTYLEWYLQKPGQSPRLLIYKVSNRFSGVPDRFSGSGAGTDFTLRISRVEAEDLGIYYCFQGSHVPPTFGGGTKLEIK
For the molecule B4, in assay [6], the dissociation constant Kd worked out at 0.21 nM, the koff was determined as 2.18e-05 s⁻¹ and the association rate constant (kon) stood at 104000 M⁻¹ s⁻¹.

The term EC50 denotes the concentration at which the effect is half-maximal. By Kd is commonly meant a measure of binding affinity in units of concentration. As a reminder, the koff is the rate constant with which the complex falls apart. The kon is the second-order rate constant of association. High values mean fast association, low ones slow association.
